# Assay results taken from US20060270591A1 (published 2006).
# T1: androgen receptor (AR), full-length, human (human, UniProt P10275 1-920)
# T1 sequence: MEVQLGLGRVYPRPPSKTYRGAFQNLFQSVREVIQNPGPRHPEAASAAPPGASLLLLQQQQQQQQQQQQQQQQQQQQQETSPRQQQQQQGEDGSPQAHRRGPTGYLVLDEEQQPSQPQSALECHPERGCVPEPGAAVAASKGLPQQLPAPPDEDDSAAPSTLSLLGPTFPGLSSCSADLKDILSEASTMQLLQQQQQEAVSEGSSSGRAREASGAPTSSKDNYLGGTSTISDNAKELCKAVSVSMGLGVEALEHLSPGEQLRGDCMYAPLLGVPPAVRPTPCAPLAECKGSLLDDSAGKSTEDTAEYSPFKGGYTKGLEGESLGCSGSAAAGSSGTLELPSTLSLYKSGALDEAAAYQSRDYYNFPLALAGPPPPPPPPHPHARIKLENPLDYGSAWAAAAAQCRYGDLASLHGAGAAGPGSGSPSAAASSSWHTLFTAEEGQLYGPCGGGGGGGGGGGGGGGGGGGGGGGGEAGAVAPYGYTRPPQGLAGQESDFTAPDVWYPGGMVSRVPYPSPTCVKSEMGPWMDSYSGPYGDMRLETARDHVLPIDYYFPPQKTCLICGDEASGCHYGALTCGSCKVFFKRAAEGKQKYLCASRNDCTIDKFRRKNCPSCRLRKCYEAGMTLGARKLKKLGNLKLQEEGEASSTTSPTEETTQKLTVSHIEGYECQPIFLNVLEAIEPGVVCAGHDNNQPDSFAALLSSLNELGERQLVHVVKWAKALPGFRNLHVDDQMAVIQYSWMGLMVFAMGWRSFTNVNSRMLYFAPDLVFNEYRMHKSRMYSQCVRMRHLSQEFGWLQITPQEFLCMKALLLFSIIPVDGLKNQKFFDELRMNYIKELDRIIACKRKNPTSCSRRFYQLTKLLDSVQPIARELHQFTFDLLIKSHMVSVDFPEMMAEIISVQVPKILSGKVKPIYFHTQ
# T2: GST-ARA267N2 (ARA267 aa 1-984) (human, UniProt Q96L73 280-1253)
# T2 sequence: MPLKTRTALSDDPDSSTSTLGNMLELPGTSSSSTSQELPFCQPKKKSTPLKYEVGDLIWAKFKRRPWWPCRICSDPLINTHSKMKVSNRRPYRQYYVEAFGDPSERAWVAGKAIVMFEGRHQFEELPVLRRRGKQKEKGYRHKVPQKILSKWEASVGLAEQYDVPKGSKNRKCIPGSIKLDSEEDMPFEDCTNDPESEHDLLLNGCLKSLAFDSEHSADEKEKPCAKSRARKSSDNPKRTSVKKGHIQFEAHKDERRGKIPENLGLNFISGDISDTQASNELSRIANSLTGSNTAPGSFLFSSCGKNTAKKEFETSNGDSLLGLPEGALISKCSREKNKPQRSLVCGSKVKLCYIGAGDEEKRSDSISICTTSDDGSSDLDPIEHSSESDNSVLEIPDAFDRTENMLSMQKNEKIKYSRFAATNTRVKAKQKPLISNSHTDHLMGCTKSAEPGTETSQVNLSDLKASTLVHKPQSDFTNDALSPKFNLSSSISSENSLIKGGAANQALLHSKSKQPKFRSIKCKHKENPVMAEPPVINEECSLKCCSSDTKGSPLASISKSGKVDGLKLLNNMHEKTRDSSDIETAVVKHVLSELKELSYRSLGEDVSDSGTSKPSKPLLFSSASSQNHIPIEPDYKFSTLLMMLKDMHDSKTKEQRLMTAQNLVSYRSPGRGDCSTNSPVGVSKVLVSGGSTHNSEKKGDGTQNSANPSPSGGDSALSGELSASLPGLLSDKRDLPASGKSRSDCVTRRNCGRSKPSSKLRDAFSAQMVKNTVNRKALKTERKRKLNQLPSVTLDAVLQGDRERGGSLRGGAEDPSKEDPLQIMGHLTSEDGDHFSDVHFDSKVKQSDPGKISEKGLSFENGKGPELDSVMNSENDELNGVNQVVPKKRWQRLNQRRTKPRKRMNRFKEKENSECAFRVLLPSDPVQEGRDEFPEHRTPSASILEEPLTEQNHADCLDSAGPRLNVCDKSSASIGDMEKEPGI
# T3: GST-ARA267C (ARA267 aa 1716-2427) (human, UniProt Q96L73 1985-2696)
# T3 sequence: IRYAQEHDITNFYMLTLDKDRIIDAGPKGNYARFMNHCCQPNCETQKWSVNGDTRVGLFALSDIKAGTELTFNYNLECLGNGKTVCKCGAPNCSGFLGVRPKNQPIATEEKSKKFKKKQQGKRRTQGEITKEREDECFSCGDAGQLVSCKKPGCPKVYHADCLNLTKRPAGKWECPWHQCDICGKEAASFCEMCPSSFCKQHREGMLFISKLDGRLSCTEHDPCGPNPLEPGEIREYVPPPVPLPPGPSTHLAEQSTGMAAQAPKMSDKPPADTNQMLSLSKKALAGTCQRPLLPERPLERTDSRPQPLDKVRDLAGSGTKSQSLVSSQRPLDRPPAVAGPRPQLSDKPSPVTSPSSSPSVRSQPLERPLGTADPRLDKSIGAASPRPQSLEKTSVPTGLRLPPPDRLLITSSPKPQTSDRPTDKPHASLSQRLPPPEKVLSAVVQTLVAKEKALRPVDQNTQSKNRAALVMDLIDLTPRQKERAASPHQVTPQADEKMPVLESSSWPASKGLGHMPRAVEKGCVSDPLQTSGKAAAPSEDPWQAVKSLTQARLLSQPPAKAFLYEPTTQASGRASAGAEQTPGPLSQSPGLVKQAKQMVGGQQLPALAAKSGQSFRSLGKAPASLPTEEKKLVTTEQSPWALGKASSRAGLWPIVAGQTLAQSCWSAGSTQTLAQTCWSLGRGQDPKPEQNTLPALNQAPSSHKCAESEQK
# B1: ARA70N (aa 1-401) with wild-type FXXLF, expressed from pSG5 (other)
# chain: MNTFQDQSGSSSNREPLLRCSDARRDLELAIGGVLRAEQQIKDNLREVKAQIHSCISRHLECLRSREVWLYEQVDLIYQLKEETLQQQAQQLYSLLGQFNCLTHQLECTQNKDLANQVSVCLERLGSLTLKPEDSTVLLFEADTITLRQTITTFGSLKTIQIPEHLMAHASSANIGPFLEKRGCISMPEQKSASGIVAVPFSEWLLGSKPASGYQAPYIPSTDPQDWLTQKQTLENSQTSSRACNFFNNVGGNLKGLENWLLKSEKSSYQKCNSHSTTSSFSIEMEKVGDQELPDQDEMDLSDWLVTPQESHKLRKPENGSRETSEKFKLLFQSYNVNDWLVKTDSCTNCQGNQPKGVEIENLGNLKCLNDHLEAKKPLSTPSMVTEDWLVQNHQDPCKVE
# B2: GAL4 AD fused C-terminal region of ARA54 (C'-ARA54, amino acids 361-474) (other)
# chain: ANFNQSGNIADSSLSFTFTNSSNGPNLITTQTNSQALSQPIASSNVHDNFMNNEITASKIDDGNNSKPLSPGWTDQTAYNAFGITTGMFNTTTMDDVYNYLFDDEDTPPNPKKERNEYLQADEANKRLLDQRYGKRVIQKALEEMESKEWLEKNSKSCPCCGTPIEKLDGCNKMTCTGCMQYFCWICMGSLSRANPYKHFNDPGSPCFNRLFYAVDVDDDIWEDEVED
# notes: range 768-881; Clone from the prostate cDNA library; also called pACT2-C'-ARA54
# B3: GST-ARA267N1 (ARA267 aa 1-382) (other, not shown: a dimerising Fc or GST)
# chain: MPLKTRTALSDDPDSSTSTLGNMLELPGTSSSSTSQELPFCQPKKKSTPLKYEVGDLIWAKFKRRPWWPCRICSDPLINTHSKMKVSNRRPYRQYYVEAFGDPSERAWVAGKAIVMFEGRHQFEELPVLRRRGKQKEKGYRHKVPQKILSKWEASVGLAEQYDVPKGSKNRKCIPGSIKLDSEEDMPFEDCTNDPESEHDLLLNGCLKSLAFDSEHSADEKEKPCAKSRARKSSDNPKRTSVKKGHIQFEAHKDERRGKIPENLGLNFISGDISDTQASNELSRIANSLTGSNTAPGSFLFSSCGKNTAKKEFETSNGDSLLGLPEGALISKCSREKNKPQRSLVCGSKVKLCYIGAGDEEKRSDSISICTTSDDGSSDLDP
# B4: AR-N (aa 36-553), in vitro translated (receptor)
# chain: NPGPRHPEAASAAPPGASLLLLQQQQQQQQQQQQQQQQQQQQQETSPRQQQQQQGEDGSPQAHRRGPTGYLVLDEEQQPSQPQSALECHPERGCVPEPGAAVAASKGLPQQLPAPPDEDDSAAPSTLSLLGPTFPGLSSCSADLKDILSEASTMQLLQQQQQEAVSEGSSSGRAREASGAPTSSKDNYLGGTSTISDNAKELCKAVSVSMGLGVEALEHLSPGEQLRGDCMYAPLLGVPPAVRPTPCAPLAECKGSLLDDSAGKSTEDTAEYSPFKGGYTKGLEGESLGCSGSAAAGSSGTLELPSTLSLYKSGALDEAAAYQSRDYYNFPLALAGPPPPPPPPHPHARIKLENPLDYGSAWAAAAAQCRYGDLASLHGAGAAGPGSGSPSAAASSSWHTLFTAEEGQLYGPCGGGGGGGGGGGGGGGGGGGGGGGGEAGAVAPYGYTRPPQGLAGQESDFTAPDVWYPGGMVSRVPYPSPTCVKSEMGPWMDSYSGPYGDMRLETARDHVLPIDYYF
# modifications: [35S]-methionine-labeled
# notes: also called AR N-terminal
# B5: VP16 AD fused full-length ARA55 (other)
# chain: MPRSGAPKERPAEPLTPPPSYGHQPTGQSGESSGASGDKDHLYSTVCKPRSPKPAAPAAPPFSSSSGVLGTGLCELDRLLQELNATQFNITDEIMSQFPSSKVASGEQKEDQSEDKKRPSLPSSPSPGLPKASATSATLELDRLMASLPDFRVQNHLPASGPTQPPVVSSTNEGSPSPPEPTAKGSLDTMLGLLQSDLSRRGVPTQAKGLCGSCNKPIAGQVVTALGRAWHPEHFVCGGCSTALGGSSFFEKDGAPFCPECYFERFSPRCGFCNQPIRHKMVTALGTHWHPEHFCCVSCGEPFGDEGFHEREGRPYCRRDFLQLFAPRCQGCQGPILDNYISALSLLWHPDCFVCRECFAPFSGGSFFEHEGRPLCENHFHARRGSLCPTCGLPVTGRCVSALGRRFHPDHFACTFCLRPLTKGSFQERAGKPYCQPCFLKLFG
# notes: also called VP16-ARA55
# Experiments:
# [1] = target: T1, androgen receptor (AR), full-length, …; experiment: cell-based or functional assay
# [2] = target: T4, GAL4 DBD fused with C-terminal fragment (aa 595-918) of mARt877s (human, UniProt P04386 1-147 (Saccharomyces cerevisiae entry)); experiment: yeast two-hybrid screen of prostate cDNA library
# T4 construct: range 1-147; Yeast two-hybrid bait; the text also writes t877a in places; also called pAS2-mtARt877s; mtARt877s
# [3] = target: T5, GAL4 DBD fused with C-terminal fragment (aa 595-918) of wild-type AR (human, UniProt P04386 1-147 (Saccharomyces cerevisiae entry)); experiment: yeast two-hybrid
# T5 construct: range 1-147; also called pAS2-AR; pAS2-wtAR
# [4] = target: B4; experiment: GST pull-down
# Protocol: (§1) After several washes with NETN buffer [20 mM Tris/pH 8.0, 100 mM NaCl, 6 mM MgCL₂, 1.0 mM EDTA, 1.0 mM DTT, 0.5% (vol/vol) Nonidet P-40, 1 mM PMSF, and 8% glycerol], the bound proteins were separated on SDS-PAGE gel and visualized by PhosphorImager (Molecular Dynamics).
# (§2) To confirm the interaction between ARA267 and AR that was shown in the yeast two-hybrid system, GST pull-down assay was applied to confirm and further map the interaction domains between ARA267 and AR.
# [5] = target: T2, GST-ARA267N2 (ARA267 aa 1-984); experiment: GST pull-down
# Protocol: as §1, §2
# [6] = target: T3, GST-ARA267C (ARA267 aa 1716-2427); experiment: GST pull-down
# Protocol: as §1, §2
# [7] = target: T6, GAL4 empty vector (GAL4 DBD alone) (UniProt P04386 1-147); experiment: mammalian two-hybrid, DU145, CAT
# T6 construct: range 1-147; Control
binder,measurement,setting,value
B1,"AR transactivation (MMTV-LUC, COS-1, 10 nM T)",[1],310 fold
B2,binding result,[2],binds
same,binding result,[3],binds
B3,binding result,[4],no binding
B4,binding result,[5],no binding
same,binding result,[6],no binding
B5,binding result,[7],no binding
